Experimental data as given in patent US20240294670A1 (University of Texas, published 2024).

Target: T1, Q3UEQ9_MOUSE (mouse, UniProt Q3UEQ9 28-926)
T1 construct: also called tr|Q3UEQ9|Q3UEQ9_MOUSE
T1 sequence: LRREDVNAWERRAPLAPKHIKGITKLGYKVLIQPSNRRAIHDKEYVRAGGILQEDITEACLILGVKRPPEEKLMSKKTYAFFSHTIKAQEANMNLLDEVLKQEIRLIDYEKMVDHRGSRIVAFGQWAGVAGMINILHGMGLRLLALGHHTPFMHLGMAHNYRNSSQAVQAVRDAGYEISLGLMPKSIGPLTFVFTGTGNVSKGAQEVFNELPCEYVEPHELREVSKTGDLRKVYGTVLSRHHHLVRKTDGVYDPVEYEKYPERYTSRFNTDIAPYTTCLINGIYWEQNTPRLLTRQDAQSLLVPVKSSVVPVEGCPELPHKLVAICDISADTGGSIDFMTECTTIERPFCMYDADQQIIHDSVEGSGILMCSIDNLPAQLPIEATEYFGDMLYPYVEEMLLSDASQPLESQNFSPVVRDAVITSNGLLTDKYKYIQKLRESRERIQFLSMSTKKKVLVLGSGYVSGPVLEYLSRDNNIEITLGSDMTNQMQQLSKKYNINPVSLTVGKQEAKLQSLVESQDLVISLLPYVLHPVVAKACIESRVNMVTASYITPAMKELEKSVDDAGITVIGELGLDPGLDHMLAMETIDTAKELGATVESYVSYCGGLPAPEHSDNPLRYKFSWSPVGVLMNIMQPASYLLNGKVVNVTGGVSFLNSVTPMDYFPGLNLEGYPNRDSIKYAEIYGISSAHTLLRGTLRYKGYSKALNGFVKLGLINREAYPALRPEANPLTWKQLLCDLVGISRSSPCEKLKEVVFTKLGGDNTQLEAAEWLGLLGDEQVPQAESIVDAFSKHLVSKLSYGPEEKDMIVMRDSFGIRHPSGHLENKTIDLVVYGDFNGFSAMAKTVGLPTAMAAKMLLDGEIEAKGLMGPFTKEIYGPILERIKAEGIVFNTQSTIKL
Test: anti-His co-IP of rCHI3L1 from Kupffer cell lysate, MS; listed under 'proteins bound to CHI3L1'
How it was run: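 Kupffer cells from WT mice 3 h after APAP were incubated with His-tagged rCHI3L1; lysate immunoprecipitated with anti-His antibody and the pulled-down fraction identified by LC/MS.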

binding result: binds
B1: recombinant mouse CHI3L1 (ligand)
chain: not shown
notes: His-tagged; also called mCHI3L1; mChi3l1
